Where “and” joins values, the source holds several entries; their conditions need not be identical. Identical values can stand only once.
How the values were obtained:
[1] = biological target: the molecule itself; assay: MALDI-TOF mass spectrometry; protein at 0.4 mM desalted on a C4 ZipTip, alpha-CHCA matrix, positive linear mode, 8-190 kDa
[2] = biological target: the molecule itself; assay: MALDI-TOF mass spectrometry; samples obtained after freezing; otherwise as the other MALDI spectra; high-order forms of low intensity

B1: ice-binding protein P80961 from longhorn sculpin (Myoxocephalus octodecemspinosus) (natural protein)
chain: MKFSLVATIVLLALAQGSFAQGAADLESLGQYFEEMKTKLIQDMTEIIRSQDLANQAQAFVEDKKTQLQPLVAQIQEQMKTVATNVEEQIRPLTANVQAHLQPQIDNFQKQMEAIIKKLTDQTMAIEN
With B1 as the protein, how does the “stoichiometry N” value [1] read?
Its value is 2 and 3 and 4.

What about the “stoichiometry N” value [2] of the same protein?
The value was 5 and 6 and 7.

Reference: PMC12732928, “The Study of Ice-Binding Protein Oligomeric Complexes” (International Journal of Molecular Sciences, 2025)
